The values below come from patent US20250059282A1 (University of Texas, published 2025).

In assay [1] the target is T1, Human PD-L1-HIS (human, UniProt Q9NZQ7 19-238).
T1 construct: also called HIS-tagged monovalent PD-L1; His-tagged human PD-L1; not shown: His tag
Nature of the assay: ForteBio, IgG, monovalent. A general note: BLI is a label-free optical method that tracks binding on a fibre tip over time.

For assay [2], the target named is T2, Human PD-L2-HIS (human, UniProt Q9BQ51 20-220).
T2 construct: also called His-tagged human PD-L2; not shown: His tag
T2 sequence: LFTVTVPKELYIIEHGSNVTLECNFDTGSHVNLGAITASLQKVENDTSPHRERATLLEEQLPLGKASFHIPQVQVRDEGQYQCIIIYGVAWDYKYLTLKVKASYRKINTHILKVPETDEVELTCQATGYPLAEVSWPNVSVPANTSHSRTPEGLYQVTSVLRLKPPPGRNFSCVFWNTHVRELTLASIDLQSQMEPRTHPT
Description: ForteBio, IgG, monovalent.

The target in assay [3] is T3, Mouse PD-L1-Fc (mouse, UniProt Q9EP73 19-239, limits assumed).
T3 construct: also called murine PD-L1; not shown: Fc
T3 sequence (Q9EP73 19-239 limits assumed): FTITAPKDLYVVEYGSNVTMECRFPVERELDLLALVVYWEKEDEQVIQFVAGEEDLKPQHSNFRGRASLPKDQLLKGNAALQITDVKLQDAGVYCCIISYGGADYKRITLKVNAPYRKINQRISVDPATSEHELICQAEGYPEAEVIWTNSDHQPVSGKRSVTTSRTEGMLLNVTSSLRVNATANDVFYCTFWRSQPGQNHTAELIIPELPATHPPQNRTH
Nature of the assay: ForteBio, IgG, avid.

Assay [4] addresses T4, Cyno PD-L1-Fc (cynomolgus, UniProt G7PSE7 19-238).
T4 construct: also called cynomolgus PD-L1
Nature of the assay: ForteBio, IgG, avid.

Assay [5] has as its target T5, Cyno PD-L2-Fc (cynomolgus, UniProt A0A2K5U5Z4 20-220).
T5 construct: also called cynomolgus PD-L2; not shown: Fc
T5 sequence: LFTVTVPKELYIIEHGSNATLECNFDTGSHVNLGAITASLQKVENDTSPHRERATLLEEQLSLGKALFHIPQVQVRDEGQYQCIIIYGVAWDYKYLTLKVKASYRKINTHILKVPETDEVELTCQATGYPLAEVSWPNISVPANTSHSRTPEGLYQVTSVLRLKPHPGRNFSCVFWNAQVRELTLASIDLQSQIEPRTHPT
Description: ForteBio, IgG, avid.

Assay [6] addresses T6, Mouse PD-L2-Fc (mouse, UniProt Q9WUL5 20-219, limits assumed).
T6 construct: also called murine PD-L2; not shown: Fc
T6 sequence (looked up): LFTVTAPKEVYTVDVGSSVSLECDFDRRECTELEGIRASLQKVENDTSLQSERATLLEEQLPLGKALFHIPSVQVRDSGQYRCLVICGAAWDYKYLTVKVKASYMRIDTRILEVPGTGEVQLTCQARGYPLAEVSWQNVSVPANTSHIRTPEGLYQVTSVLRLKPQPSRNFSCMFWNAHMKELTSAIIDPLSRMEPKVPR
Description: ForteBio, IgG, avid.

The target in assay [7] is T7, Human PD-L2-Fc (human, UniProt Q9BQ51 20-220).
T7 construct: also called dimeric PD-L2; PD-L2 (dimeric ligand); not shown: human IgG1 Fc constant region
T7 sequence: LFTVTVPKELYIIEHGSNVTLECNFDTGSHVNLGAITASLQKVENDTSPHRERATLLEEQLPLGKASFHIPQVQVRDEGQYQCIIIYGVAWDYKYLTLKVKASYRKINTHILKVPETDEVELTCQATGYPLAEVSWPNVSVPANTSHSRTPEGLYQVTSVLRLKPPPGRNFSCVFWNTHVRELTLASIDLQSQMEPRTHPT
Description: ForteBio Octet, Fab, monovalent. As to the method: ForteBio KD measurements—ForteBio affinity measurements were performed on an Octet® RED384 generally as previously described (see, e.g., Estep et al., 2013). Briefly, ForteBio affinity measurements were performed by loading IgGs on-line onto AHQ sensors. Sensors were equilibrated off-line in assay buffer for 30 min and then monitored on-line for 60 seconds for baseline establishment. Sensors with loaded IgGs were exposed to 100 nM antigen for 3 minutes, and afterwards were transferred to assay buffer for 3 min for off-rate measurement. For monovalent affinity assessment Fabs were used instead of IgGs. For this assessment the […] Fc fusion antigen was loaded on-line onto the AHQ sensors. Sensors were equilibrated off-line in assay buffer for 30 min and then monitored on-line for 60 seconds for baseline establishment. Sensors with loaded antigen were exposed to 100 nM Fab for 3 minutes, and afterwards they were transferred to assay buffer for 3 min for off-rate measurement. All kinetics were analyzed using the 1:1 binding model.

T1 sequence (Q9NZQ7 19-238 limits assumed): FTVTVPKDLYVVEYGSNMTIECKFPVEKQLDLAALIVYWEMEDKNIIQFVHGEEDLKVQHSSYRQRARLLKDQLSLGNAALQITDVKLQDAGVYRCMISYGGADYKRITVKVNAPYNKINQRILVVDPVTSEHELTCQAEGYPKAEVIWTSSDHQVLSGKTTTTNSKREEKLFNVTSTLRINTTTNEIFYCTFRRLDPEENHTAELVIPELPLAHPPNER
T4 sequence (G7PSE7 entry or part of it limits assumed): as the sequence (Q9NZQ7 19-238 limits assumed) above, with A33T, A34S, S62N, R68Q, Q82R, F173L, T185A, T192I, H215L counted along it

B1: BiPDL3-34 (antibody, V domains shown)
VH: QVQLQQWGAGLLKPSETLSLTCAVYGGSLSGYPWSWIRQPPGKGLEWIGETDVSGWTDYNPSLKSRVTISVDTSKNQFSLKLSSVTAADTAVYYCARDGRRMGTPSFDIWGQGTMVTVSS
VL: DIQMTQSPSSVSASVGDRVTITCRASQDISSFLAWYQQKPGKAPKLLIYAASSLQDGVPSRFSGSGSGTDFTLTISSLQPEDFATYYCQKSVYFPPTFGGGTKVEIK
notes: IgG; also called ADI-37468; 37468
In general, Kd refers to a measure of binding affinity in units of concentration. Low readings indicate a tighter complex, high ones a looser complex. Turning to B1, the Kd came to 17.8 nM in assay [1]; 0.844 nM in assay [2]; 31.6 nM in assay [3]; 0.431 nM in assay [4]; 0.677 nM in assay [5]; 0.484 nM in assay [6].

B2: BiPDL3-13 Fab (Fab, V domains shown)
VH: QVQLQQWGAGLLKPSETLSLTCAVYGGSLSGYPWSWIRQPPGKGLEWIGETDVSGWTDYNPSLKSRVTISVDTSKNQFSLKLSSVTAADTAVYYCARDGRRMGTPSFDIWGQGTMVTVSS
VL: DIQLTQSPSSVSASVGDRVTITCRASQGISSWLAWYQQKPGKAPKLLIYAASSLQSGVPSRFSGSGSGTDFTLTISSLQPEDFATYYCQQYVYFPPTFGGGTKVEIK
notes: Fab made by papain digestion of the IgG
The molecule B2 showed a Kd in assay [7] of 16 nM.

B3: BiPDL3-24 (antibody, V domains shown)
VH: QVQLQQWGAGLLKPSETLSLTCAVYGGSLSGYPWSWIRQPPGKGLEWIGETDVSGWTDYNPSLKSRVTISVDTSKNQFSLKLSSVTAADTAVYYCARDGRRMGTPSFDIWGQGTMVTVSS
VL: DIQMTQSPSSVSASVGDRVTITCRASQGISNFLAWYQQKPGKAPKLLIYAASSLQSGVPSRFSGSGSGTDFTLTISSLQPEDFATYYCQKAVYFPPTFGGGTKVEIK
notes: IgG; also called ADI-37465; 37465
As for B3, the dissociation constant (Kd) in assay [1] came to 13.4 nM; in assay [2], 0.868 nM; in assay [3] it was 2.65 nM; in assay [4], 0.396 nM; in assay [5], 0.605 nM; in assay [6] it was 0.553 nM.

B4: BiPDL3-44 (antibody, V domains shown)
VH: QVQLQQWGAGLLKPSETLSLTCAVYGGSLSGYPWSWIRQPPGKGLEWIGETDVSGWTDYNPSLKSRVTISVDTSKNQFSLKLSSVTAADTAVYYCARDGRRMGTPSFDIWGQGTMVTVSS
VL: DIQMTQSPSSVSASVGDRVTITCRASQGISTFLAWYQQKPGKAPKLLIYAASALHSGVPSRFSGSGSGTDFTLTISSLQPEDFATYYCQRAVYFPPTFGGGTKVEIK
notes: IgG; also called ADI-37475; 37475
Take B4: the Kd in assay [1] came to 30.2 nM; in assay [2], 1.45 nM; in assay [3], 42 nM; in assay [4], 0.455 nM; in assay [5], 0.603 nM; in assay [6], 0.552 nM.
